Source: the supplement of paper PMC10126150
± gives the standard deviation of the averaged measurements.
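Further: ATP exposure 15 min at 22 °C before imaging.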

The sequences below were run on ATP (assay: switch fluorescence ratio, 500 uM ATP over buffer (Cy3 cluster intensity, sum of 5 cycles each) (fold (ratio)); higher = stronger signal-on switching upon ATP binding; sequences stand for … in TCGTCGGCAGCGTCAGATGTGTATAAGAGACAGTTTTTTTTTTTTTTTTTTTTTTTTT…TC). Settings: aptamer strand: ATP DNA aptamer (quencher-CACCTGGGGGAGTATTGCGGAGGAAGG + anchor), 100 nM annealed; ATP concentration: 500 uM.
In short: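 Switching-strand clusters labelled with Cy3 on a modified Illumina MiSeq flow-cell were annealed to 100 nM quencher-labelled ATP aptamer, imaged in selection buffer, and re-imaged after 15 min with 500 uM ATP at 22 °C. This was done over five cycles with NaOH stripping and re-annealing in between. The fluorescence ratio is summed target-cycle over summed buffer-cycle Cy3 intensity per cluster, averaged per switch-domain sequence, excluding clusters outside 100-1000 RFU.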
ACGGTAAACT gave a switch fluorescence ratio of 1.18 ± 0.065.
For ACGGTAACGC, the switch fluorescence ratio was 1.02 ± 0.011.
ACGGTAAGGA gave a switch fluorescence ratio of 1.098 ± 0.0091.
ACGGTAGTTG was tested, and the switch fluorescence ratio was 0.9851 ± 0.009.
ACGGTATGGG gave a switch fluorescence ratio of 1.07 ± 0.046.
Sequence ACGGTCGCGT has a switch fluorescence ratio of 1 ± 0.012.
For ACGGTCTCGG, the switch fluorescence ratio was 1.01 ± 0.025.
For ACGGTGAGGT, the switch fluorescence ratio was 1.02 ± 0.016.
ACGGTGGAGA was tested, and the switch fluorescence ratio was 1.05 ± 0.015.
With ACGGTGGAGT the switch fluorescence ratio was 1.02 ± 0.054.
ACGGTGGCGT showed a switch fluorescence ratio of 1.02 ± 0.016.
In the case of ACGGTGGTCA, the switch fluorescence ratio is reported as 1.023 ± 0.0092.
For ACGGTGGTGG, the switch fluorescence ratio was 1.12 ± 0.12.
Work on ACGGTGTAGG yielded a switch fluorescence ratio of 1.11 ± 0.12.
In the case of ACGGTGTCAC, the switch fluorescence ratio is reported as 0.9774 ± 0.0012.
ACGGTGTTAC was tested, and the switch fluorescence ratio was 1.11 ± 0.027.
For ACGGTTAGTG, the switch fluorescence ratio was 1.01 ± 0.018.
ACGTAATAGC gave a switch fluorescence ratio of 2.07 ± 0.13.
Sequence ACGTACGGGT has a switch fluorescence ratio of 1.46 ± 0.12.
With ACGTAGTCAT the switch fluorescence ratio was 1.04 ± 0.03.
Sequence ACGTATCTCT has a switch fluorescence ratio of 1.17 ± 0.11.
Sequence ACGTATGGGC has a switch fluorescence ratio of 1.082 ± 0.0027.
In the case of ACGTATTTGT, the switch fluorescence ratio is reported as 1.11 ± 0.013.
ACGTCAAAGG showed a switch fluorescence ratio of 1.37 ± 0.51.
In the case of ACGTCCATTT, the switch fluorescence ratio is reported as 1.06 ± 0.011.
With ACGTCCTGCT the switch fluorescence ratio was 1.07 ± 0.011.
Sequence ACGTCTACGC has a switch fluorescence ratio of 1.101 ± 0.0031.
ACGTCTAGTG showed a switch fluorescence ratio of 0.965 ± 0.023.
For ACGTCTTTGT, the switch fluorescence ratio was 1 ± 0.088.
For ACGTGATTCA, the switch fluorescence ratio was 1.03 ± 0.074.
ACGTGCACGA gave a switch fluorescence ratio of 1.01 ± 0.015.
For ACGTGCAGTG, the switch fluorescence ratio was 0.9525 ± 0.0085.
Work on ACGTGCGCAG yielded a switch fluorescence ratio of 1.07 ± 0.018.
With ACGTGCTCGG the switch fluorescence ratio was 1.007 ± 0.01.
Work on ACGTGGCACA yielded a switch fluorescence ratio of 1.053 ± 0.0084.
With ACGTGTGCGG the switch fluorescence ratio was 0.959 ± 0.031.
Sequence ACGTGTGTGG has a switch fluorescence ratio of 0.989 ± 0.017.
With ACGTTAATGA the switch fluorescence ratio was 1.121 ± 0.002.
Work on ACGTTCAGGG yielded a switch fluorescence ratio of 1.05 ± 0.059.
Work on ACGTTGAGGG yielded a switch fluorescence ratio of 1.06 ± 0.049.
Work on ACGTTGGACA yielded a switch fluorescence ratio of 1.12 ± 0.05.
ACGTTGGCGG showed a switch fluorescence ratio of 1 ± 0.013.
Work on ACGTTGTGGA yielded a switch fluorescence ratio of 1.027 ± 0.0075.
Sequence ACGTTTGGTG has a switch fluorescence ratio of 0.962 ± 0.03.
For ACGTTTTTGT, the switch fluorescence ratio was 1.027 ± 0.0097.
In the case of ACGTTTTTTG, the switch fluorescence ratio is reported as 0.99 ± 0.015.
Work on ACTAAAAAGA yielded a switch fluorescence ratio of 1.07 ± 0.056.
For ACTAAAGAGC, the switch fluorescence ratio was 1.12 ± 0.2.
With ACTAAATCCT the switch fluorescence ratio was 1.19 ± 0.02.
For ACTAACTTTC, the switch fluorescence ratio was 1.1 ± 0.097.
In the case of ACTAAGAGTT, the switch fluorescence ratio is reported as 1.03 ± 0.056.
In the case of ACTAATACGA, the switch fluorescence ratio is reported as 2.41 ± 1.8.
ACTAATCGAA gave a switch fluorescence ratio of 1.05 ± 0.013.
ACTAATGCTT showed a switch fluorescence ratio of 1.01 ± 0.034.
ACTAATGTAT was tested, and the switch fluorescence ratio was 1 ± 0.014.
ACTAATTATT was tested, and the switch fluorescence ratio was 1.03 ± 0.021.
Work on ACTACAGGCT yielded a switch fluorescence ratio of 1.026 ± 0.0035.
Sequence ACTACGATGG has a switch fluorescence ratio of 1.05 ± 0.018.
ACTACGCTTG showed a switch fluorescence ratio of 1.29 ± 0.022.
Sequence ACTAGAAATG has a switch fluorescence ratio of 0.984 ± 0.017.
Work on ACTAGAGCCA yielded a switch fluorescence ratio of 0.982 ± 0.011.
In the case of ACTAGGCAAT, the switch fluorescence ratio is reported as 1.96 ± 0.27.
Sequence ACTAGGGGGA has a switch fluorescence ratio of 0.986 ± 0.023.
ACTAGGTATG was tested, and the switch fluorescence ratio was 1.01 ± 0.032.
Work on ACTAGTAGGG yielded a switch fluorescence ratio of 1 ± 0.0095.
ACTAGTCGGA showed a switch fluorescence ratio of 1.03 ± 0.028.
ACTATAATCA showed a switch fluorescence ratio of 1.04 ± 0.026.
For ACTATAGTAT, the switch fluorescence ratio was 1 ± 0.057.
In the case of ACTATGAACC, the switch fluorescence ratio is reported as 1.051 ± 0.0016.
ACTATGATAT gave a switch fluorescence ratio of 1.018 ± 0.0073.
Work on ACTATGGAGC yielded a switch fluorescence ratio of 1.07 ± 0.077.
For ACTATGGGGA, the switch fluorescence ratio was 1.01 ± 0.0026.
Sequence ACTATGTGTG has a switch fluorescence ratio of 0.99 ± 0.031.
ACTATTCGCT showed a switch fluorescence ratio of 1.02 ± 0.01.
ACTATTCGGC gave a switch fluorescence ratio of 0.982 ± 0.02.
Work on ACTATTGGGG yielded a switch fluorescence ratio of 0.989 ± 0.011.
ACTCAATTAG showed a switch fluorescence ratio of 1.025 ± 0.01.
Work on ACTCAATTAT yielded a switch fluorescence ratio of 1.02 ± 0.042.
With ACTCAGTTCT the switch fluorescence ratio was 1.03 ± 0.016.
With ACTCATGGCA the switch fluorescence ratio was 1.09 ± 0.046.
With ACTCATTTC the switch fluorescence ratio was 1.03 ± 0.047.
With ACTCATTTTA the switch fluorescence ratio was 1.02 ± 0.024.
With ACTCGAAAAA the switch fluorescence ratio was 1.04 ± 0.026.
For ACTCGATTTT, the switch fluorescence ratio was 1.02 ± 0.033.
For ACTCGGCCC, the switch fluorescence ratio was 1.23 ± 0.015.
ACTCGGCGGT was tested, and the switch fluorescence ratio was 2.14 ± 1.7.
ACTCGGCTTG was tested, and the switch fluorescence ratio was 1.03 ± 0.023.
ACTCGGGTGG was tested, and the switch fluorescence ratio was 1.019 ± 0.0096.
With ACTCTATACA the switch fluorescence ratio was 1.11 ± 0.088.
ACTGAAGGGG gave a switch fluorescence ratio of 1.02 ± 0.059.
In the case of ACTGAATTGG, the switch fluorescence ratio is reported as 1.001 ± 0.0029.
Sequence ACTGAGGAT has a switch fluorescence ratio of 0.9994 ± 0.003.
With ACTGAGGGGA the switch fluorescence ratio was 1 ± 0.08.
Sequence ACTGAGTTGG has a switch fluorescence ratio of 0.986 ± 0.013.
In the case of ACTGATTTTA, the switch fluorescence ratio is reported as 1.01 ± 0.056.
ACTGCAGAGG showed a switch fluorescence ratio of 1.08 ± 0.034.
For ACTGCGGGTC, the switch fluorescence ratio was 1.031 ± 0.0063.
Work on ACTGCTAATT yielded a switch fluorescence ratio of 1.08 ± 0.039.
For ACTGCTAGGG, the switch fluorescence ratio was 1.02 ± 0.013.
ACTGGAGGGT showed a switch fluorescence ratio of 1.02 ± 0.044.
ACTGGCATTG gave a switch fluorescence ratio of 1.02 ± 0.044.
For ACTGGCCCCG, the switch fluorescence ratio was 1.34 ± 0.41.
ACTGGCTCCT was tested, and the switch fluorescence ratio was 1.02 ± 0.056.
For ACTGGGAAG, the switch fluorescence ratio was 1.05 ± 0.064.
With ACTGGGCCGT the switch fluorescence ratio was 1.01 ± 0.046.
For ACTGGGGCCA, the switch fluorescence ratio was 0.972 ± 0.047.
ACTGGGGCCG showed a switch fluorescence ratio of 1.01 ± 0.056.
ACTGGGGGTA showed a switch fluorescence ratio of 1.01 ± 0.025.
For ACTGGGTATT, the switch fluorescence ratio was 0.963 ± 0.061.
Sequence ACTGGTAACG has a switch fluorescence ratio of 1.02 ± 0.024.
ACTGGTATA showed a switch fluorescence ratio of 0.994 ± 0.032.
For ACTGTAAATT, the switch fluorescence ratio was 1.086 ± 0.0031.
ACTGTAGGGC showed a switch fluorescence ratio of 1.04 ± 0.04.
Sequence ACTGTGCGCC has a switch fluorescence ratio of 1.01 ± 0.029.
With ACTGTGGGGT the switch fluorescence ratio was 0.996 ± 0.022.
Sequence ACTGTTATGA has a switch fluorescence ratio of 1.08 ± 0.058.
ACTGTTATGG gave a switch fluorescence ratio of 1.066 ± 0.0077.
ACTGTTGGGG gave a switch fluorescence ratio of 0.999 ± 0.02.
ACTTAATAAC showed a switch fluorescence ratio of 1.03 ± 0.013.
ACTTAATTTG gave a switch fluorescence ratio of 1 ± 0.044.
With ACTTACAGCT the switch fluorescence ratio was 1.19 ± 0.017.
ACTTAGCAA showed a switch fluorescence ratio of 1.92 ± 0.092.
With ACTTAGTTAA the switch fluorescence ratio was 1.02 ± 0.015.
ACTTATCATT showed a switch fluorescence ratio of 1.04 ± 0.013.
ACTTATCCTT showed a switch fluorescence ratio of 1.0512 ± 0.00011.
With ACTTATGCAT the switch fluorescence ratio was 1.055 ± 0.0046.
With ACTTCACTCG the switch fluorescence ratio was 1.42 ± 0.098.
For ACTTCCGTTC, the switch fluorescence ratio was 1.35 ± 0.017.
Work on ACTTCGGGTA yielded a switch fluorescence ratio of 1.003 ± 0.0017.
ACTTCGTATG was tested, and the switch fluorescence ratio was 1.03 ± 0.011.
ACTTGCACGT showed a switch fluorescence ratio of 1.175 ± 0.0094.
Work on ACTTGCTTAC yielded a switch fluorescence ratio of 2 ± 0.022.
ACTTGGAGCG showed a switch fluorescence ratio of 1.018 ± 0.0092.
ACTTGTAATG gave a switch fluorescence ratio of 0.989 ± 0.049.
ACTTGTGGGG gave a switch fluorescence ratio of 0.973 ± 0.037.
For ACTTGTTGCG, the switch fluorescence ratio was 0.989 ± 0.056.
With ACTTTAGGGA the switch fluorescence ratio was 0.974 ± 0.019.
With ACTTTCTGAC the switch fluorescence ratio was 1.22 ± 0.24.
Sequence ACTTTGCATT has a switch fluorescence ratio of 1.19 ± 0.038.
With ACTTTGGCC the switch fluorescence ratio was 1.0113 ± 0.00058.
Sequence ACTTTGGGGA has a switch fluorescence ratio of 1.033 ± 0.0065.
In the case of ACTTTGGTAT, the switch fluorescence ratio is reported as 0.982 ± 0.029.
ACTTTTACA was tested, and the switch fluorescence ratio was 1.155 ± 0.0053.
ACTTTTTGTG gave a switch fluorescence ratio of 1 ± 0.013.
Sequence AGAAAAAATG has a switch fluorescence ratio of 0.974 ± 0.05.
AGAAAAACGG showed a switch fluorescence ratio of 1.12 ± 0.25.
Work on AGAAAAATGG yielded a switch fluorescence ratio of 0.998 ± 0.02.
AGAAAAGGGT was tested, and the switch fluorescence ratio was 0.997 ± 0.03.
In the case of AGAAAAGGTT, the switch fluorescence ratio is reported as 0.98 ± 0.021.
Work on AGAAACAAGG yielded a switch fluorescence ratio of 0.979 ± 0.027.
AGAAACGTAT showed a switch fluorescence ratio of 1.13 ± 0.013.
In the case of AGAAAGACTT, the switch fluorescence ratio is reported as 1.04 ± 0.047.
AGAAAGAGGA gave a switch fluorescence ratio of 0.987 ± 0.023.
